Assay results from article PMC7092541, “Characterization of a novel family VIII esterase EstM2 from soil metagenome capable of hydrolyzing estrogenic phthalates” (Microbial Cell Factories, 2020).

What was measured:
Assay in all cases: purified protein
[1] = system: CC(=O)Oc1ccc([N+](=O)[O-])cc1; settings: 50 mM Tris-HCl pH 8.0, 1% acetonitrile
[2] = system: CCCC(=O)Oc1ccc([N+](=O)[O-])cc1; settings: 50 mM Tris-HCl pH 8.0, 1% acetonitrile
[3] = system: CCCCCC(=O)Oc1ccc([N+](=O)[O-])cc1; settings: 50 mM Tris-HCl pH 8.0, 1% acetonitrile
[4] = system: CCCCOC(=O)c1ccccc1C(=O)OCCCC; settings: 50 mM Tris-HCl pH 8.0, 37 °C, substrate 0.1-10 mM (unit defined at 25 °C)
[5] = system: CCCCOC(=O)c1ccccc1C(=O)OCc1ccccc1; settings: 50 mM Tris-HCl pH 8.0, 37 °C, substrate 0.1-10 mM (unit defined at 25 °C)
[6] = system: CCCCOC(=O)c1ccccc1C(=O)O; settings: 50 mM Tris-HCl pH 8.0, 37 °C, substrate 0.1-10 mM (unit defined at 25 °C)
[7] = system: CCOC(=O)c1ccccc1C(=O)O; settings: 50 mM Tris-HCl pH 8.0, 37 °C, substrate 0.1-10 mM (unit defined at 25 °C)
[8] = system: COC(=O)c1ccccc1C(=O)OC; settings: 50 mM Tris-HCl pH 8.0, 37 °C, substrate 0.1-10 mM (unit defined at 25 °C)
[9] = system: COC(=O)c1ccccc1C(=O)O; settings: 50 mM Tris-HCl pH 8.0, 37 °C, substrate 0.1-10 mM (unit defined at 25 °C)
[10] = system: O=C(O)c1ccccc1C(=O)OCc1ccccc1; settings: 50 mM Tris-HCl pH 8.0, 37 °C, substrate 0.1-10 mM (unit defined at 25 °C)
[11] = system: O=C(O)c1ccccc1C(=O)Oc1ccccc1; settings: 50 mM Tris-HCl pH 8.0, 37 °C, substrate 0.1-10 mM (unit defined at 25 °C)
[12] = system: O=C(Oc1ccccc1)c1ccccc1C(=O)Oc1ccccc1; settings: 50 mM Tris-HCl pH 8.0, 37 °C, substrate 0.1-10 mM (unit defined at 25 °C)

For EstM2 (uncultured bacterium), which Km [1] is on record?
Its Km is 410 ± 10 µM.

What about the Vmax [1] of the same substance?
Its Vmax is 748 µmol/min/mg.

And the kcat/Km [1]?
The kcat/Km was 1.29e+06 ± 32500 M⁻¹ s⁻¹.

And the Km [2]?
The Km was 440 ± 10 µM.

And the Vmax [2]?
Its Vmax is 905 µmol/min/mg.

And the kcat/Km [2]?
Its kcat/Km is 1.46e+06 ± 34200 M⁻¹ s⁻¹.

What about the Km [3] of the same substance?
The Km was 280 ± 20 µM.

What about the Vmax [3] of the same substance?
The Vmax was 71.4 µmol/min/mg.

And the kcat/Km [3]?
The kcat/Km was 183000 ± 10700 M⁻¹ s⁻¹.

What about the Km [4] of the same substance?
The Km was 620 ± 40 µM.

And the Vmax [4]?
Its Vmax is 72.9 µmol/min/mg.

What about the kcat/Km [4] of the same substance?
The kcat/Km was 84200 ± 5100 M⁻¹ s⁻¹.

And the Km [5]?
Its Km is 640 ± 40 µM.

And the Vmax [5]?
Its Vmax is 57.6 µmol/min/mg.

And the kcat/Km [5]?
Its kcat/Km is 64500 ± 3800 M⁻¹ s⁻¹.

And the Km [6]?
The Km was 1260 ± 80 µM.

What about the Vmax [6] of the same substance?
The Vmax was 56.7 µmol/min/mg.

What about the kcat/Km [6] of the same substance?
The kcat/Km was 32200 ± 2200 M⁻¹ s⁻¹.

What about the Km [7] of the same substance?
Its Km is 1730 ± 130 µM.

And the Vmax [7]?
The Vmax was 54.2 µmol/min/mg.

And the kcat/Km [7]?
The kcat/Km was 22500 ± 1600 M⁻¹ s⁻¹.

What about the Km [8] of the same substance?
The Km was 1020 ± 80 µM.

What about the Vmax [8] of the same substance?
Its Vmax is 42.1 µmol/min/mg.

And the kcat/Km [8]?
The kcat/Km was 29600 ± 2300 M⁻¹ s⁻¹.

What about the Km [9] of the same substance?
Its Km is 1950 ± 150 µM.

And the Vmax [9]?
Its Vmax is 41.3 µmol/min/mg.

What about the kcat/Km [9] of the same substance?
The kcat/Km was 15200 ± 1200 M⁻¹ s⁻¹.

And the Km [10]?
The Km was 1120 ± 80 µM.

What about the Vmax [10] of the same substance?
The Vmax was 43.8 µmol/min/mg.

And the kcat/Km [10]?
The kcat/Km was 28000 ± 2000 M⁻¹ s⁻¹.

What about the Km [11] of the same substance?
The Km was 1060 ± 80 µM.

What about the Vmax [11] of the same substance?
The Vmax was 37.6 µmol/min/mg.

What about the kcat/Km [11] of the same substance?
The kcat/Km was 25400 ± 1900 M⁻¹ s⁻¹.

And the Vmax [12]?
The Vmax was 45.1 µmol/min/mg.

What about the kcat/Km [12] of the same substance?
The kcat/Km was 54800 ± 3600 M⁻¹ s⁻¹.
